Patent publication US20260191937A1, “AGENTS, COMPOSITIONS AND METHODS FOR MODULATING IMMUNITY” (The University of Queensland, priority 2022, published 2026)

T1: 6PGD (Mus musculus, UniProt Q9DCD0)
T1 construct: host or cells: HEK293
T1 sequence (Q9DCD0 1-483): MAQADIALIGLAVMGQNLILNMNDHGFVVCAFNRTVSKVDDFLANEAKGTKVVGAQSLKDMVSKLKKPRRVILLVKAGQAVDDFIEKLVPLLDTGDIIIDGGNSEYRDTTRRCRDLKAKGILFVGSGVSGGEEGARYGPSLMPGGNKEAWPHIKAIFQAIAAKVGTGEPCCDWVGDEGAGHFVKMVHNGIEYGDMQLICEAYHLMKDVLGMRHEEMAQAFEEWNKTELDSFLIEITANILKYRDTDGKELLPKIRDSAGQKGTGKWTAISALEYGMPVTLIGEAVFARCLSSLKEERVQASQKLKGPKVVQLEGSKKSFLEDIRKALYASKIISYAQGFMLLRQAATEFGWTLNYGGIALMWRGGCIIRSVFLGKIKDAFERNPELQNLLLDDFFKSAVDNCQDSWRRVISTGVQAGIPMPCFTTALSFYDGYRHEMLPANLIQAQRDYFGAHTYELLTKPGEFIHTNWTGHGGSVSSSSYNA


Molecular target: T1, 6PGD
Assay: 6PGD enzyme activity in lysates of HEK293 cells co-transfected with 6PGD and HDAC7 constructs
Format: biochemical
Details: molar ratio 1:1 (6PGD:HDAC), 24 h after transfection
Procedure: FIG. 19 is a graphical representation of HDAC7 increasing 6PGD enzyme activity in HEK293 cells. HEK293 cells were transfected with expression constructs encoding (A-B) 6PGD and/or HDAC7, (C-D) 6PGD and HDAC7 wild type (WT) or HDAC7 enzyme-dead (ED), (E-F) 6PGD and full-length (HDAC7), N-terminal HDAC7 (N-HDAC7) or C-terminal HDAC7 (C-HDAC7) at a molar ratio of 1:1 (6PGD:HDAC). After 24 h, cells were lysed and the enzymatic activity of 6PGD in lysates was measured. […] Statistical analysis was performed using repeated measure one-way ANOVA followed by Dunnett's multiple comparison (ns, not significant; * p<0.05; ** p<0.01). (B, D, F) Levels of 6PGD (Flag), HDAC7 (V5) and GAPDH expression in cell lysates were assessed via western blot.
6PGD activity can be enhanced by co-delivering HDAC7. HEK293 cells were plated in 12-well plates and incubated overnight at 37° C. The Lipofectamine 2000 (Invitrogen) transfection reagent was prepared in OptiMEM to a final concentration of 1 μg DNA per μL and incubated at room temperature for 5 min. Plasmid DNA was diluted in OptiMEM (Gibco) and then mixed with Lipofectamine 2000, after which the transfection mixture was incubated at room temperature for 30 min. Prior to transfection, cell culture media was replaced with OptiMEM, after which the transfection mixture was added into cells. Cells were then incubated at 37° C. for 6-8 h before being supplemented with fresh OptiMEM. 24 h post-transfection, culture supernatants were discarded, and cells were briefly washed with DPBS and lysed for different analyses.
Mouse HDAC7 (the unspliced isoform lacking the first 22 amino acids), an enzyme-dead (ED) mutant HDAC7 carrying an H-to-A mutation (Das Gupta et al., 2020, Cell Rep. 30:2712-2728.e2718), N-terminal HDAC7 (N-HDAC7, amino acid 23-504, comprising a PHA03247 super family motif corresponding to the herpes simplex virus-1 UL36 large tegument protein, which is known to comprise deubiquitinating activity) and C-terminal HDAC7 (C-HDAC7, amino acid 498-938) were cloned in pEF6/V5-His-TOPO vectors. Mouse 6PGD was cloned in a pCMV expression vector (MG53165-CF, Sino Biologicals). HEK293 cells were transiently transfected with expression constructs encoding 6PGD and HDAC7 at a molar ratio of 1:1. 24 h after transfection, cells were lysed and lysates were subjected to 6PGD activity assays using an in vitro assay (Abcam), as per the manufacturer's instructions. The enzymatic activity was determined by measuring absorbance at 460 nm in kinetic mode using a plate reader (Infinite M Plex, Tecan).

Molecule	enzymatic activity of 6PGD relative to cells transfected with 6PGD alone	enzymatic activity of 6PGD relative to cells transfected with 6PGD alone (listed as WT HDAC7)
C-terminal deacetylase domain of HDAC7: C-terminal HDAC7, amino acid 498-938, SEQ ID NO:23 (protein, listed as Mus musculus) MVLNSSETPATGLVYDSVMLKHQCSCGDNSKHPEHAGRIQSIWSRLQERGLRSQCECLRGRKASLEELQSVHSERHVLLYGTNPLSRLKLDNGKLTGLLAQRTFVMLPCGGVGVDTDTIWNELHSSNAARWAAGSVTDLAFKVASRELKNGFAVVRPPGHHADHSTAMGFCFFNSVAIACRQLQQHGKASKILIVDWDVHHGNGTQQTFYQDPSVLYISLHRHDDGNFFPGSGAVDEVGTGSGEGFNVNVAWAGGLDPPMGDPEYLAAFRIVVMPIAREFAPDLVLVSAGFDAAEGHPAPLGGYHVSAKCFGYMTQQLMNLAGGAVVLALEGGHDLTAICDASEACVAALLGNKVDPLSEESWKQKPNLSAIRSLEAVVRVHRKYWGCMQRLASCPDSWLPRVPGADAEVEAVTALASLSVGILAEDRPSERLVEEEEPMNL	does not activate 6PGD	
N-terminal domain of HDAC7: N-terminal HDAC7, amino acid 23-504, SEQ ID NO:15 (protein, listed as Mus musculus) MDLRVGQRPTVEPPPEPALLTLQHPQRLHRHLFLAGLHQQQRSAEPMRLSMDPPMPELQGGQQEQELRQLLNKDKSKRSAVASSVVKQKLAEVILKKQQAALERTVHPSSPSIPYRTLEPLDTEGAARSVLSSFLPPVPSLPTEPPEHFPLRKTVSEPNLKLRYKPKKSLERRKNPLLRKESAPPSLRRRPAETLGDSSPSSSSTPASGCSSPNDSEHGPNPALGSEADGDRRTHSTLGPRGPVLGNPHAPLFLHHGLEPEAGGTLPSRLQPILLLDPSVSHAPLWTVPGLGPLPFHFAQPLLTTERLSGSGLHRPLNRTRSEPLPPSATASPLLAPLQPRQDRLKPHVQLIKPAISPPQRPAKPSEKPRLRQIPSAEDLETDGGGVGPMANDGLEHRESGRGPPEGRGSISLQQHQQVPPWEQQHLAGRLSQGSPGDSVLIPLAQVGHRPLSRTQSSPAAPVSMLSPEPTCQTQVLNSSET	increased the enzymatic activity of 6PGD to similar levels to that of the WT HDAC7	
HDAC7: Mouse HDAC7 lacking the first 22 amino acids, SEQ ID NO:13, expression construct (protein, listed as Mus musculus) MDLRVGQRPTVEPPPEPALLTLQHPQRLHRHLFLAGLHQQQRSAEPMRLSMDPPMPELQGGQQEQELRQLLNKDKSKRSAVASSVVKQKLAEVILKKQQAALERTVHPSSPSIPYRTLEPLDTEGAARSVLSSFLPPVPSLPTEPPEHFPLRKTVSEPNLKLRYKPKKSLERRKNPLLRKESAPPSLRRRPAETLGDSSPSSSSTPASGCSSPNDSEHGPNPALGSEADGDRRTHSTLGPRGPVLGNPHAPLFLHHGLEPEAGGTLPSRLQPILLLDPSVSHAPLWTVPGLGPLPFHFAQPLLTTERLSGSGLHRPLNRTRSEPLPPSATASPLLAPLQPRQDRLKPHVQLIKPAISPPQRPAKPSEKPRLRQIPSAEDLETDGGGVGPMANDGLEHRESGRGPPEGRGSISLQQHQQVPPWEQQHLAGRLSQGSPGDSVLIPLAQVGHRPLSRTQSSPAAPVSMLSPEPTCQTQVLNSSETPATGLVYDSVMLKHQCSCGDNSKHPEHAGRIQSIWSRLQERGLRSQCECLRGRKASLEELQSVHSERHVLLYGTNPLSRLKLDNGKLTGLLAQRTFVMLPCGGVGVDTDTIWNELHSSNAARWAAGSVTDLAFKVASRELKNGFAVVRPPGHHADHSTAMGFCFFNSVAIACRQLQQHGKASKILIVDWDVHHGNGTQQTFYQDPSVLYISLHRHDDGNFFPGSGAVDEVGTGSGEGFNVNVAWAGGLDPPMGDPEYLAAFRIVVMPIAREFAPDLVLVSAGFDAAEGHPAPLGGYHVSAKCFGYMTQQLMNLAGGAVVLALEGGHDLTAICDASEACVAALLGNKVDPLSEESWKQKPNLSAIRSLEAVVRVHRKYWGCMQRLASCPDSWLPRVPGADAEVEAVTALASLSVGILAEDRPSERLVEEEEPMNL	significantly increases 6PGD activity	significantly increased the enzymatic activity of 6PGD to a similar level
ED HDAC7: enzyme-dead mutant HDAC7 carrying an H-to-A mutation, SEQ ID NO:14 (protein) MDLRVGQRPTVEPPPEPALLTLQHPQRLHRHLFLAGLHQQQRSAEPMRLSMDPPMPELQGGQQEQELRQLLNKDKSKRSAVASSVVKQKLAEVILKKQQAALERTVHPSSPSIPYRTLEPLDTEGAARSVLSSFLPPVPSLPTEPPEHFPLRKTVSEPNLKLRYKPKKSLERRKNPLLRKESAPPSLRRRPAETLGDSSPSSSSTPASGCSSPNDSEHGPNPALGSEADGDRRTHSTLGPRGPVLGNPHAPLFLHHGLEPEAGGTLPSRLQPILLLDPSVSHAPLWTVPGLGPLPFHFAQPLLTTERLSGSGLHRPLNRTRSEPLPPSATASPLLAPLQPRQDRLKPHVQLIKPAISPPQRPAKPSEKPRLRQIPSAEDLETDGGGVGPMANDGLEHRESGRGPPEGRGSISLQQHQQVPPWEQQHLAGRLSQGSPGDSVLIPLAQVGHRPLSRTQSSPAAPVSMLSPEPTCQTQVLNSSETPATGLVYDSVMLKHQCSCGDNSKHPEHAGRIQSIWSRLQERGLRSQCECLRGRKASLEELQSVHSERHVLLYGTNPLSRLKLDNGKLTGLLAQRTFVMLPCGGVGVDTDTIWNELHSSNAARWAAGSVTDLAFKVASRELKNGFAVVRPPGHAADHSTAMGFCFFNSVAIACRQLQQHGKASKILIVDWDVHHGNGTQQTFYQDPSVLYISLHRHDDGNFFPGSGAVDEVGTGSGEGFNVNVAWAGGLDPPMGDPEYLAAFRIVVMPIAREFAPDLVLVSAGFDAAEGHPAPLGGYHVSAKCFGYMTQQLMNLAGGAVVLALEGGHDLTAICDASEACVAALLGNKVDPLSEESWKQKPNLSAIRSLEAVVRVHRKYWGCMQRLASCPDSWLPRVPGADAEVEAVTALASLSVGILAEDRPSERLVEEEEPMNL	significantly increased the enzymatic activity of 6PGD to a similar level	
